Experimental data: PMC2903445 (Proteins, 2010)
Where a chain is given by its changes, count along the chain named. Names and notes keep the numbering of the source. Read-outs that look alike come from different tables or passages of the source. Blank lines part the entries; values can stand above or below the binder they belong to. Ends that are not written are not given here.

Assays:
Assay in all cases: fluorescence polarisation
Gαi1 K248E, S252L = Gαi1 K248E, S252L (human, UniProt P63096 26-354, K248E | S252L)
[1] = molecular target: T1, Gαi1 (N-terminal-truncated, hexahistidine-tagged human Gαi1), wild type (human, UniProt P63096 26-354)
[2] = molecular target: T1, Gαi1 (N-terminal-truncated, …); remark: listed apart in the source
[3] = molecular target: Gαi1 F223V, L249F, Q147L, E245L (human, UniProt P63096 26-354, F223V | L249F | Q147L | E245L)
Gαi1 E245L, L249A = Gαi1 E245L, L249A (human, UniProt P63096 26-354, E245L | L249A)
Gαi1 I78S, A111Q = Gαi1 I78S, A111Q (human, UniProt P63096 26-354, I78S | A111Q)
Gαi1 F223V, L249F [4] = molecular target: T2, Gαi1 F223V, L249F (human, UniProt P63096 26-354, F223V | L249F)
Gαi1 F223V, L249F [5] = molecular target: T2, Gαi1 F223V, L249F; remark: listed apart in the source

T1 sequence (P63096 26-354): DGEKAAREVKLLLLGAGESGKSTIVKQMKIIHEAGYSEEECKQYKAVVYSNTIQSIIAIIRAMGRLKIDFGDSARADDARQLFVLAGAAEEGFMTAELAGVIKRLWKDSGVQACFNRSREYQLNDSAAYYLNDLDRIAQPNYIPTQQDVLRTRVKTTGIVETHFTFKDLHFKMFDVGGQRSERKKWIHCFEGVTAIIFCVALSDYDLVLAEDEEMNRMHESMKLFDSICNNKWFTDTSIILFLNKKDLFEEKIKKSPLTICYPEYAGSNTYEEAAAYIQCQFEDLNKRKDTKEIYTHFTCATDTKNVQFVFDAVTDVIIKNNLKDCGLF
T2 sequence (P63096 26-354 F223V/L249F): as the sequence (P63096 26-354) above, with F198V, L224F counted along it
Chain of Gαi1 K248E, S252L (P63096 26-354 K248E/S252L): as the sequence (P63096 26-354) above, with K223E, S227L counted along it
Chain of Gαi1 E245L, L249A (P63096 26-354 E245L/L249A): as the sequence (P63096 26-354) above, with E220L, L224A counted along it
Chain of Gαi1 I78S, A111Q (P63096 26-354 I78S/A111Q): as the sequence (P63096 26-354) above, with I53S, A86Q counted along it
Chain of Gαi1 F223V, L249F, Q147L, E245L (P63096 26-354 Q147L/F223V/E245L/L249F): as the sequence (P63096 26-354) above, with Q122L, F198V, E220L, L224F counted along it

B1: GoLoco motif of RGS14 (496-531, Tenascin fusion) L503K (domain or fragment, UniProt O08773 496-531, looked up)
chain: DIEGLVEKLNRVQSSGAHDQRGLLRKEDLVLPEFLQ
modifications: also: 6-IAF fluorescein on the unique Cys (not in given chain)
Kd (Gαi1 K248E, S252L): 80 ± 10 nM

B2: GoLoco motif of RGS14 (496-531, Tenascin fusion) L504A, F529W (domain or fragment, UniProt O08773 496-531, looked up)
chain: B1 chain with K8L, L9A, F34W
modifications: also: 6-IAF fluorescein on the unique Cys (not in given chain)
Kd [1]: ~5000 nM
Kd [2]: > 5000 nM
Kd [3]: 40 ± 100 nM

B5: GoLoco motif of RGS14 (496-531, Tenascin fusion) L504A (domain or fragment, UniProt O08773 496-531, looked up)
chain: B1 chain with K8L, L9A
modifications: also: 6-IAF fluorescein on the unique Cys (not in given chain)
Kd (Gαi1 F223V, L249F [4]): ~5000 nM
Kd [2]: 2400 ± 1000 nM
Kd (Gαi1 F223V, L249F [5]): > 5000 nM

Next, values leading:

Kd [2]: 1040 ± 60 nM
Kd (Gαi1 E245L, L249A): 50 ± 10 nM
B3: GoLoco motif of RGS14 (496-531, Tenascin fusion) V507M (domain or fragment, UniProt O08773 496-531, looked up)
chain: B1 chain with K8L, V12M
modifications: also: 6-IAF fluorescein on the unique Cys (not in given chain)

Kd [2]: 16000 ± 5000 nM
Kd (Gαi1 I78S, A111Q): > 20000 nM
B4: GoLoco motif of RGS14 (496-531, Tenascin fusion) L519T (domain or fragment, UniProt O08773 496-531, looked up)
chain: B1 chain with K8L, L24T
modifications: also: 6-IAF fluorescein on the unique Cys (not in given chain)

Kd [2]: 100 ± 20 nM
Kd (Gαi1 K248E, S252L): 320 ± 60 nM
B6: GoLoco motif of RGS14 (residues 496-531) expressed as a fusion to Tenascin, wild type (domain or fragment, UniProt O08773 496-531, looked up)
chain: B1 chain with K8L
modifications: also: 6-IAF fluorescein on the unique Cys (not in given chain)
